This sample holds only a part of the variants without activity.
B1: TPR 5TU (parent)
chain: GGAUCUUCUCGAUCUAACAAAAAAGACAAAUCUGCCACAAAGCUUGAGAGCAUCUUCGGAUGCAGAGGCGGCAGCCUUCGGUGGCGCGAUAGCGCCAACGUUCUCAACUAUGACACGCAAAACGCGUGCUCCGUUGAAUGGAGUUUAUCAUG

Variants of: B1
Test: polymerase ribozyme fitness, log enrichment relative to wild type (log ratio); higher = more active; in vitro selection for triplet polymerase activity
Method in brief: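 One round of in vitro selection, in triplicate, was applied to PCR-built, transcribed mutant libraries of each subunit of a heterodimeric triplet polymerase ribozyme. The steps were annealing with a biotinylated primer, partner subunit and triplets, incubation frozen at −7 °C, gel excision of extended constructs, streptavidin-bead capture and RT-PCR. Fitness is the logarithm, base 2, of genotype enrichment over wild-type enrichment from inverse-variance-weighted replicate averages of Illumina-sequenced inputs and outputs, keeping genotypes with ≥10 input reads and ≥1 read per output.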

Variant | polymerase ribozyme fitness (log ratio)
GGAUCUUCUCGAUCUAACAAAUAAAACAAAUCUGCCACAACGCUUGAGAGCAUCUUCGGAUGCAGAGGCGGCAGCCUUCGGUGGCGCGAUGGCCCCAACGUUCUCAACUAUGACACGCAAAACGCGUGCUCCGUUGAAUGGAGUUUAUCAUG [A22U G25A A41C A91G G94C] | ≤ -4.2
GGAUCUUCUCGAUCUAACAAAUAAGACAAAUCUGCCACAAAGCUUGAGAGCAUCUUCGGAUGCAGAGGCGGCAGCCUUCGGUGGCGCGAUAGCGCCAACGUUCUCAACUAUGACACGCAAAAGGCGUGCUCCGUUGAAUGGAGUUUAUCAUG [A22U C123G] | -0.0344
GGAUCUUCUCGAUCUAACAAAUAAGACAAAUCUGCCACAAAGCUUCAGAGCAUCUUCGGAUGCAGAGGCGGCAGCCUUCGGUGGCGCGAUAGCGCCAACGUUCUCAACUAUGAUACGCAAAACGCGUGCUCCGUUGAAUGGAGUUUAUCAUG [A22U G46C C114U] | -3.67
GGAUCUUCUCGAUCUAACAAAUAAGACAAAUCUGCCACAAAGCUUGAGAUCAUUUUCGGAUGCAGCGGCGGCAGCCUUCGGUGGCGCGAUGUCGCCAACGUUCUCAACUAUGACACGCAAAACGCGUGCUCCGUUGAGUGGAGUUUAUCAUG [A22U G50U C54U A66C A91G G92U A138G] | ≤ -4.2
GGAUCUUCUCGAUCUAACAAAUAAGACAAAUCUGCCACAAAGCUUGAGAGCAUCUUCGGAUGCAGAGGCGGCAGCCUUCGGUGGCGCGAUAGAGCCAACGUUCUCAACUAUGACACGCAAAACGCGUGCUCCGUUGAAUGGAGUUUAUCAUG [A22U C93A] | -2.34
GGAUCUUCUCGAUCUAACAAAUAAGACAAAUCUGCCACAAAGCUUGAGAGCAUCUUCCGAUGCAGAGGCGGCAGCCUUCGGUGGCGCGAUAUCGCCAACGUUCUCAACUAUGACACGCAAAACCCGUGCUCCGUUGAAUGGAGUUUAUCAUG [A22U G58C G92U G124C] | -0.925
GGAUCUUCUCGAUCUAACAAAUAAGACAAAUCUACCACAAAGCUUGAGAGCAUCUUCGGAUGCAGAGGCGGCAUCCUUCGGUGGCGCGAUAGCACCAACGUUCUCAACUAUGACACGCCAAACGCGUGCUCCGUUGAAUGGAAUUUAUCAUG [A22U G34A G74U G94A A119C G143A] | ≤ -4.2
GGAUCUUCUCGAUCUAACAAAUAAGACAAAUCUGCCACAAAGCUUGAGAGCAUCUUCGGAUGCAGAGGCGGCAGCGUUCGGUGGCGGGAUAGCGCCAACGGUCUCAACUAUGACACGCAAAACGCGUGCUCCGUUGAAUCGAGUUUAUCAUG [A22U C76G C87G U101G G140C] | -4.19
GGAUCUUCUCGAUCUAACAAAUAAGACAAAUCUGCCACAAAGCUUGAGAUCAUCUUCGGAUGCAGAGGCGGCAGCCUUCGGUGGCGCGAUAGCGCGAACGUUCUCAACUAUGACACGCAAAACGCGUGCUCCGUUGAAUGGAGUGUAUCAUG [A22U G50U C96G U145G] | -0.544
GGAUCUUCUCGAUCUAACAAAUAAGACAAAUCUGCCACAAAGCUUGAGAGCAUCUUCGGAUGCAGAGGCGGCAGCCUUCGGUGGCGCGAUAGCGCCAACGUUCUCAACUAUGAAACGCAAAACGCGUGCUCCGUUGAAUGGAGUUUAUCAUG [A22U C114A] | -3.29
GGAUCUUCUCGAUCUAACAAAUAAGACAAAUCUGCCACAAAGCUUGAGAGCAUCUUCAGCUGCAGAGGCGGCAGCCUUCGGUGGCGCGAUAGCGCCAACGUUCUCAACUAAGACACGCAAAACGCGUGCUCCGUUGAAUGGAGUUUAUCAUG [A22U G58A A60C U111A] | ≤ -4.2
GGAUCUUCUCGAUCUAACAAAUAAGACAAAUCUGCCACAAAGCUUGAGAGCAUUUUCGGAUGCAGAGGCGGCAGCCUUCGGUGGCGCGAUAUCGCCAACGUUCUCAACUAUGACACGCAAAACGCGUGCUCCGUUGAAUGGAGUUUUUCAUG [A22U C54U G92U A147U] | 0.944
GGAUCUUCUCGAUCUAACAAAUAAGACAAAUCUGCCACAAAGCUUCAGAGCAUCUUCGGAUGCAGAGGCGGCUGCCUUCGGUGGCGCGAUAGCGCCAACGUUCUCAACUAUGACACGCAAAACGCGUGCUCCGUUGAAUGGAGUUUAUCAUG [A22U G46C A73U] | -3.61
GGAUCUUCUCGAUCUAACAAAUAAGACAAAUCUGCCACAAAGCUUGAGAGCAUCUUAGGAUGCAGAGGCGGCAGCCUUCGGUGGCGCGAUAGCGCGUACGUUCUCAACUAUGACACGGCAAACGCGUGCUCCGUUGAAUGGAGUUUAUCAUG [A22U C57A C96G A97U C118G A119C] | -2.85
GGAUCUUCUCGAUCUAACAAAUAAGACAAAUCUGCCACAAACCUUGAGAGCAUCUUCGGAUGCAGAGGCGGCAGCCUUCAGUGGCGCGAUGGCGGCAUCGUUCUCAACUAUGACACGCAAAACGCGUGCUCCGUUGAAUGGAGUUUAUCAUG [A22U G42C G80A A91G C95G A98U] | ≤ -4.2
GGAUCUUCUCGAUCUAACAAAUAAGACAAAUCUGCCACAAAGCUUGAGAGCAUCUUCGGAUGCAGAGGCGGCAGCCUUCGGUGGCGCGAUAGCGCGAACGUUCUCAACUAUGACACGCAAAACGCGUGCUCCGUUGAAUGGAGUUUAUCAUG [A22U C96G] | -0.148
GGAUCUUCUCGAUCUAACAAAUAAGACAAAUCUGCCACAAAGCUUGAGAGCAUCUUCGGAUGCAGAGGCGGCAGCCUUCGGUGGCGCGAUAGCGCAAACGUUCUCAACUAUGACACGCAAAACGCGUGCUCCGUUGAAUGGAGUUUAUCAUG [A22U C96A] | -0.026
GGAUCUUCUCGAUCUAACAAAUAAGACAAAUCUGCCACAAAGCUUGAGAGCAUCUUCGGAUGCAGAGGCGGCAGGCUUCGGUGGCGCGAUAGCGCCAACGUUCUCAACUAUGACACGCAAAACGCGUGCUCCGUUGAAUGGAGUUUAUCAUG [A22U C75G] | -3.65
GGAUCUUCUCGAUCUAACAAAUAAGACAAAUCUGCCACAAAGCUUGAGAGCAUCUUAGGAUGCAGAGGCGGCAGCCUUCGGUGGCGCGAUAGCGCCAACGUUCUCAACUAUGACACGCAAAACGCGUGCUCCGUUGAAUGGAGUUUAUCAUG [A22U C57A] | -0.719

Variant | polymerase ribozyme fitness (log ratio)
GGAUCUUCUCGAUCUAACAAAUAAGACAAAUCUGCCACAAAGCUUGACAGUAUCUUCGGAUGCAGAGGCGGCAGCCUUCGGUGGCGCGAUAGCGCCAACGUUCUCAACUAUGACAGGCAAAACACGUGCUCCGUUGAAUGGAGUUUAUCGUG [A22U G48C C51U C116G G124A A150G] | ≤ -4.2
GGAUCUUCUCGAUCUAACAAAUAAGACAAAUCUGCCACAAAGCUUGAGAGCAUCUUCGGAUGCAGAGGAGGCAGCCUUCGGUGGCGCGAUUGCGCCAACGUUCUCAACUAUGACACGCAAAACGCGUGCUCCGUUGAAUGGAGUUUAUCAUG [A22U C69A A91U] | ≤ -4.2
GGAUCUUCUCGAUCUAACAAAUAAGACAAAUCUGCCACAAAGCUUGAGAGCAUCUUCGGAUGCAGAGGCGGCAGCCUUCGGUGGCGCGAUAGCGCCAAUGUUCUCAACUAUGACACGCAAAACGCGUGCUCCGUUGAAUGGAGUUUAUCAUG [A22U C99U] | -0.0944
GGAUCUUCUCGAUCUAACAAAUAAGACAAAUCUGCCACAAAGCUUGAGAGCAUCUUCGGAUGCAGAGGCGGCAGCCUUCGGUGGCGCGAUAGCGCCAAAGUUCUCAACUAUGACACGCAAAACGCGUGCUCCGUUGAAUGGAGUUUAUCAUG [A22U C99A] | 0.261
GGAUCUUCUCGAUCUAACAAAUAAGACAAAUCUGCCACAAAGCUUAAGAGCAUCUUCGGAUGCAGAGGCGGCAGCCUUCGGUGGCGCGAUAGCGCCAACGUUCUCAACUAUGACGCGCAAAACGCGUGCUCCGUUGAAUGGAGUUUAUCAUG [A22U G46A A115G] | -1.54
GGAUCUUCUCGAUCUAACAAAUAAGACAAAUCUGCCACAAAGCUUGAGAGCAUCUUCGGAUGCAGAGGCGGCAGCCUUCGGUGGCGUGAUAGCGCCAACGUUCUCAACUAUGACACGCAAAACGCGUGCUCCGUUGAAUGUAGUUUAUCAUG [A22U C87U G141U] | 1.15
GGAUCUUCUCGAUCUAACAAAUAAGACAAAUCUGCCACAAAGCUUGAGAGCAUCUUCGGAUGCAGAGGCGGCAGCUUUCGGUGGCGCGAUAGCGCCAACGUGCUCAACUAUGACACGCAAAACGCGUGCUCCGUUGAAUGGAGUUUAUCAUG [A22U C76U U102G] | -3.01
GGAUCUUCUCGAUCUAACAAAUAAGACAAAUCUACCACAAAGCUUGAGAGCAUCUUCGGAUCCAGAGCCGGCAGCCUUCGGUGGCGCGAUAGCGCAAACGUUCUCAACUAUGACACGCAAAACGCGUGCUCCGUUGAAUGGAGUUUAUCAUG [A22U G34A G62C G68C C96A] | ≤ -4.2
GGAUCUUCUCGAUCUAACAAAUAAGACAAAUCUGCCACAAAGCUUGAGAGCAUCUUCGGAUGCAGAGGCGGCAGCCUUCGGUGGCGCGAUAGCGCCAACGUUCUCAAUUAUGACACGCAAAACGCGUGCUCCGUUGAAUGGAGUUUAUCAUG [A22U C108U] | -2.85
GGAUCUUCUCGAUCUAACAAAUAAGACAAAUCUGCCACAAAGCUUGAGAGCAUCUUCGGAUGCAGAGGCGGCAGCCUUCGGUGGCGCGAUAGCGCCAACGUUGUCAACUCUGACACGCAAAACGCGUGCUCCGUUGAAUGGAGUUUAUCAUG [A22U C103G A110C] | ≤ -4.2
GGAUCUUCUCGAUCUAACAAAUAAGACAAAUCUGCCACAAAGCUUGAGAGCAUCUUCGGAUGCAGAGGCGGCAGCCUUCGGUGGCGCGAUAGCGAAAAUGUUCUCAACUAUGACACGCAAAACGCGUGCUCCGUUGAAUGGAGUUUAUCAUG [A22U C95A C96A C99U] | -1.54
GGAUCUUCUCGAUCUAACAAAUAAGACAAAUCUGCCACAAAGCUUAAGAGCAUCUUCGGAUGCAGAGGCGGCAGCCUUGUGUGGCGCGAUAACGCCAACGUUCUCAACUAUGACACGCAAAACGCGUGCUCCGUUGAAUGGAGUUUAUCCUG [A22U G46A C79G G80U G92A A150C] | ≤ -4.2
GGAUCUUCUCGAUCUAACAAAUAAGACAAAUCUGCCACAAAGCUUGAGAGCAUCUUCGGAUGCAGAGGCGGCAGCCUUCGGUGGAGCGAUAGCGCCAACGUUCUCAACUAUGACACGCAAAACGCGUGCUCCGUUGAAUGGAGUUUAUCAUG [A22U C85A] | -0.394
GGAUCUUCUCGAUCUAACAAAUAAGACAAAUCUGCCACAAAGCUUGAGAGCAUCUUCGGAUGCAGAGGCGGCAGCCUUCGGUGGCGUGAUAGCGCCAACGUUCUCAACUAUGACACGCAAAACGCGUGCUCCGUUGAAUGGAGUUUAUCAUG [A22U C87U] | 0.455
GGAUCUUCUCGAUCUAACAAAUAAGACAAAUCUGCCACAAAGCUUGAGAGCAUCUUCGGAUGCAGAGGCGGCAGCCUUCGGUGGCGAGAUAGCGCCAACGUUCUCAACUAUGACACGCAAAACGCGUGCUCCGUUGAAUGGAGUUUAUCAUG [A22U C87A] | -4.14
GGAUCUUCUCGAUCUAACAAAUAAGACAAAUCUGCCACAAAGCUUGAGAGCAUCUUCGGAUGCAGAGGGGGCAGUCUUCGGUGGCGCGAUAGUGCCAACGCUCUCAACUAUGACACGCAAAACGCGAGCUCCGUUGAAUGGAGUUUAUCAUG [A22U C69G C75U C93U U101C U127A] | ≤ -4.2
GGAUCUUCUCGAUCUAACAAAUAAGACAAAUCUGCCACAAAGCUUGAGAGCAUCUUCGGAUGCAGAGGCGGCAGCCUUCGGUGGCGCGAUAGCGCCAACGUUCUCAACUAUGACACGCAAAACGCGUGCUCCGUUGAAUGGAGUUUAUUAUG [A22U C149U] | 0.0648
GGAUCUUCUCGAUCUAACAAAUAAGACAAAUCUGCCACAAAGCUUGAGAGCAUUAUCGGAUGCAGAGGCGGCAGCCUUCGGUGGCGCGAUAGCGCCAACGUUCUCAACUAUGACACGCAAAACGCGUGCUCCGUUGAAUGGAGUUUAUCAUG [A22U C54U U55A] | 0.0331
GGAUCUUCUCGAUCUAACAAAUAAGACAAAUCUGCCACAAAGCUUGAGAGCAUCUUGAGAUGCAGAGGCGGCAGCCUUCGGUGGCGCGAUAGCGCCAACGUUCUCAACUAUGAGACGCAAAACGCGUGCUCCGUUGAAUGGAGUUUAUCAUG [A22U C57G G58A C114G] | -2.5

From the RNAGym collection of RNA variant scans (doi:10.1073/pnas.2313332121)
